In patent US20230416785A1, “NUCLEASE AND APPLICATION THEREOF” (CRISP-HR Therapeutics, Inc., priority 2020, published 2023):

Experiments:
H1299 cells = experiment: Cellular viability of transfected H1299 cells (resazurin assay); format: cell-based, human; conditions: for cellular viability compared to RLucRT alone: H1299 cells, AAVS1 G1 or G2 plus RLucRT, two days
Text: Next the viability of transfected cells was quantified via resazurin after two days, then cells were washed with PBS, then lysed and luminescence quantified via plate reader (FIG. 4B). […] Next Luminescence was quantified via the Renilla-Glo Luciferase Assay System (Promega) using a 96 well plate reader with luminescence capabilities (Tecan). After data collection, raw luminescence was background subtracted from non-transfected control cells, corrected for cellular viability, and plotted in FIG. 4D.
(§1) Unless otherwise noted, adherent cells (A549 or H1299) were seeded in 96 well plates and grown in either 50/50 F-12/DMEM or RPMI-1640 respectively, supplemented with 5% FBS and grown to roughly 70% confluency. Cells were then transfected with either Cal-Phos as described in Chen 2012 or Lipofectamine 3000 (Thermofisher). Fresh media was exchanged the next day and cellular viability was quantified on day 2.
(§2) 20 μL of 0.15 mg/mL Resazurin solution was added to cells either plated in 96 well plates for all cell lines, which were then incubated for ˜4 hours at 37° C. Cellular toxicity was quantified using a Tecan SpectraFlour Plus plate reader (Tecan) using a 535/595 filter set. Raw data was then normalized to the mean of the untransfected controls and plotted as described.
After two days, cellular viability was quantified via Resazurin, then washed with PBS and lysed with 25 μL of cell lysis buffer, and luciferase activity was quantified via Renilla Luciferase Assay (Promega) and using a Tecan Infinite Mplex plate reader.

CHO-SHS-1.2 = experiment: CHO cell Cas9-HR8 stable knock-in, anti-Cas9 western blot; format: cell-based; conditions: CHO cells; CHO-SHS-1.2-G1; Puromycin 10 days, then 12 days without
Experimental: CHO-Freestyle Cells (Invitrogen) were grown to ˜70% confluency, after which were transfected using the Neon (Thermo) transfection system and 250 ng of Cas9-HR8, 250 ng of either CHO-SHS-1.2-G1, and 50 ng CHO-SHS-1.2-pCAG-Cas9-HR8-IRES-PuroR RT. Cells were allowed to recover for two days, then treated with […] Puromycin for 10 days, after which Puromycin selection was removed. Cells were grown for an additional 12 days, after which cells split and half were frozen, while the other half was treated with RIPA buffer (Santa-Cruz) to extract protein, with non-transfected control CHO cells protein also extracted via RIPA buffer. Lysate was normalized and 7.5 ug total protein was loaded onto a 4-12% Bis-Tris Acrylamide gel (Invitrogen), and transferred to nitrocellulose using BioRad blotting and transfer system (BioRad). Membrane was washed 3× with 1×PBST (BioRad), blocked for 10 minutes using EveryBlot blocking solution (BioRad), and incubated for 1 hr at RT with a 1:1000 dilution of mouse anti-Cas9 (SantaCruz). Membrane was washed 5× for 5 minutes each in PBST, then incubated for an hour with 1:1000 rabbit anti-mouse-HRP secondary antibody for 1 hr at RT. Membrane was then washed 5× for 5 minutes each in PBST, after which a 1× NC/DAB (ThermoFisher) solution was used to visualize bands. FIG. 22A illustrates an exemplary diagram showing CHO cell Cas9-HR8 stable knock-in protocol. […]

U2OS cells = experiment: RPA foci quantification in U2OS cells; format: cell-based, human
Experimental: After two days cells, cells were prepared for imaging as in Murkherjee et al 2015. Cytoplasm was extracted via two sequential 10 minute washes on ice consisting of Extraction Buffer 1: 10 mM PIPES, pH 7.0; 100 mM NaCl; 300 mM Sucrose; 3 mM MgCl2; 1 mM EGTA, 0.5% Triton X-100 and Extraction Buffer 2: 10 mM Tris-HCl, pH 7.5; 10 mM NaCl; 3 mM MgCl2, 1% Tween 40, 0.5% sodium deoxycholate. Cells were then fixed using 4% PFA for 20 minutes at RT, then washed three times with PBST, blocked in 5% goat-serum for 30 minutes at RT, then incubated overnight at 4° C. with 1:1000 dilution of mouse anti-RPA (Calbiochem; Catalog no: NA191). Next day cells were washed 5× with PBST with 20 minutes per wash, then incubated overnight at 4° C. with a 1:1000 dilution of anti-mouse Alexa fluor 568 (Thermo Fisher). Cells were washed next day cells were washed 5× with PBST with 20 minutes per wash, then mounted in Vectashield with DAPI (Vector Labs; Catalog no: H-1200), and imaged at 10× using an Leica Stellaris Confocal Microscope. Foci per cell were quantified using a custom script to identify number of RPA foci per cell. […] After two days cells were fixed, then cytoplasm extracted on ice, then remaining nuclei were stained for RPA. At the end of staining, nuclei were labeled with DAPI and cells were imaged via confocal microscopy. Post-imaging nuclei identification and RPA thresholding allowed quantification of the number of RPA foci per nuclei.

A549 cells = experiment: Cellular toxicity / viability of transfected A549 cells (resazurin assay); format: cell-based
Experimental: A549 cells were chosen as they are both facile to grow and transfect, cost effective in terms of media and other reagents, and importantly have retained a functional p53 gene.
Cells were then allowed to recover for one additional day, after which viability was cells were incubated with resazurin (Millipore Sigma) for 4 hours, after which fluorescence was quantified by a plate reader (Perkin Elmer).
as §1, §2
as §2, with “described. […] Stats: All two-sided students T-test with unequal variance.” for “described.”

[1] = SHS-231, hH2B-G4 or B-Catenin1, vs non-treated control cells

In the case of “Cas9-HR 8: hExo1(1-352)-Cas9 fusion of FIG. 1A; E. coli codon optimized vectors SEQ ID NO: 68 and 69”, the “toxicity in H1299 cells compared to A549” value (H1299 cells; H1299 cells (lack functional p53 gene), H2B-G4 guide) is reported as “small reduction”, the “cellular viability compared to RLucRT alone” value (H1299 cells) is reported as “slightly reduced” and the “cellular viability compared to RLucRT alone” value (H1299 cells; listed as Cas9-HR8) is reported as “no gross changes in cellular viability”. The “stable knock-in of Cas9-HR8 repair template (over 8 kb), anti-Cas9 western blot” value (CHO-SHS-1.2) was “stably integrated Cas9-HR8”, the “percent cells with 1-10 RPA foci” value (U2OS cells; [1]) was “increased the percentage of cells with RPA foci” and the “percent cells with any RPA foci” value (U2OS cells; [1]) was “increased the percentage of cells with RPA foci”. The “percent cells with 11-100 RPA foci compared to Cas9” value (U2OS cells; targeting hH2B and Beta-Catenin1) was “significant decrease in cells with 11-100 RPA foci”, the “cellular viability relative to Cas9” value (A549 cells; Cadherin1 G1 or G2, Day 2 post transfection) was “significant increases in cellular viability” and the “cellular toxicity compared to Cas9” value (A549 cells; H2B-G4 guide, lipofectamine 3000) was “significant reduction in cellular toxicity”. For the same substance, the cellular toxicity (A549 cells; Int-G2 and Int-G3, CalPhos) was “dramatic reduction in cellular toxicity” and the “cellular viability relative to Cas9” value (A549 cells; SHS-231 G1, G2 or G3, Day 2 post transfection) was “significant increases in cellular viability”.
